# From patent US20160215297
# Experiments:
# Experiment in all cases: cell_activity
# [1] = tested on: Il2rg ZFN left (synthetic construct); conditions: pair with ZFN right; mRNA electroporated into rat zygotes, 3/4 offspring; Surveyor assay positive in rat fibroblasts; 37% and 73% in Tests 5-1 and 5-2
# [2] = tested on: Il2rg TALEN right (synthetic construct); conditions: pair with TALEN left; mRNA electroporated into rat zygotes, 3/17 offspring; Surveyor assay positive in rat fibroblasts
# [3] = tested on: Il2rg ZFN right (synthetic construct); conditions: pair with ZFN left; mRNA electroporated into rat zygotes, 3/4 offspring; Surveyor assay positive in rat fibroblasts; 37% and 73% in Tests 5-1 and 5-2
# [4] = tested on: Il2rg TALEN left (synthetic construct); conditions: pair with TALEN right; mRNA electroporated into rat zygotes, 3/17 offspring; Surveyor assay positive in rat fibroblasts
sequence,measurement,setting,value
GCATAGTGAGGTTGG (double strand) [Il2rg ZFN left binding site],activity (% mutant offspring),[1],75
TCCAAGTGCAATTCATATACT (double strand) [Il2rg TALEN right binding site],activity (% mutant offspring),[2],18
GGTATGAGAAGGGGG (double strand) [Il2rg ZFN right binding site],activity (% mutant offspring),[3],75
TCCCAGAGGTTCAATGCT (double strand) [Il2rg TALEN left binding site],activity (% mutant offspring),[4],18
